Paper PMC5646864

T1: Escherichia coli CsdE (Escherichia coli), P0AGF2
T1 chain: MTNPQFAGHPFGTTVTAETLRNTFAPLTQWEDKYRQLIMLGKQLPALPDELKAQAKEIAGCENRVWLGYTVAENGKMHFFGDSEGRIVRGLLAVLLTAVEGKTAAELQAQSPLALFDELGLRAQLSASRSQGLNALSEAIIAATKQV

B1: Escherichia coli CsdE, P0AGF2 1-147 (natural protein)
chain: T1 chain

Legend:
Cys61 = Cys61 (UniProt position 61, KEIAGCENRVW); settings: not stated (reduced thiol implied; discussed for free CsdE); cited from earlier work
[1] = target: T1, Escherichia coli CsdE (Escherichia …); test: crystal structure; native CsdE at 40 mg/ml in 10 mM Tris-HCl pH 8, 2 mM 2-mercaptoethanol; crystallised in 0.1 M sodium citrate pH 6.5, 20% (w/v) PEG-MME 2000 at 297 K; two monomers in the asymmetric unit joined by a Cys61-Cys61 disulfide bridge; phased by Se-SAD on SeMet crystals; settings: remark: other sources report otherwise

Molecule | pKa (Cys61) | stoichiometry N [1]
Sulfur acceptor protein CsdE (YgdK) (Escherichia coli) | 6.5 | 
B1 |  | 2
